US7208572B2, “Leptin-related peptides” (Albany Medical College, priority 1998, dated 2007)

Biological target: T1, OB-Ra (Mus musculus, UniProt P48356)
T1 construct: expressed in transfected cells; host or cells: COS-7
T1 sequence (P48356 22-894 isoform P48356-2 limits assumed): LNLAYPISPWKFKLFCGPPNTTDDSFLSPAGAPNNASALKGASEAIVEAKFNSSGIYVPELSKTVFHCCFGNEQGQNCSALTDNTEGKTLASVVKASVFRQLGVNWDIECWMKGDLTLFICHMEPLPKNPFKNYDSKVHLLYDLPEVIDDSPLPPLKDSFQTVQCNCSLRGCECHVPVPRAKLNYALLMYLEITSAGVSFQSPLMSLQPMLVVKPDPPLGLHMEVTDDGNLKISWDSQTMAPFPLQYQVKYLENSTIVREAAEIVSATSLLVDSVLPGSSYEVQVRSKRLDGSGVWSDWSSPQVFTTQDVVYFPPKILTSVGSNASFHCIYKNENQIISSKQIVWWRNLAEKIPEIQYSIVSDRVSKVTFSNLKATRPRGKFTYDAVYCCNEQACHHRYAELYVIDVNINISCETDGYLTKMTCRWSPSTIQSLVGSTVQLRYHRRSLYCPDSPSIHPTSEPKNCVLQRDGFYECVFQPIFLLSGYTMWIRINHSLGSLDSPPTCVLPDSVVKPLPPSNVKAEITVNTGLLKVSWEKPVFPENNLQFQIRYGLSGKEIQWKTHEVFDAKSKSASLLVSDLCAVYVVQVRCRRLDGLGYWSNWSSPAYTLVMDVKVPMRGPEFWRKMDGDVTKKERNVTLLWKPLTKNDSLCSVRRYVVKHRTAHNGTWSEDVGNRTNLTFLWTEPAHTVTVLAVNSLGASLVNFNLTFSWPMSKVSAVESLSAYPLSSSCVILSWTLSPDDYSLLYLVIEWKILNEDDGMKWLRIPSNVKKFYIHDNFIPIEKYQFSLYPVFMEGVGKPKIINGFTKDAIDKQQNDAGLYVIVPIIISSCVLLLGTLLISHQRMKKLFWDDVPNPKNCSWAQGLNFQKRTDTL
Assay: Inhibition of AP-OB fusion protein binding by COS-7 cells transfected with OB receptor
Settings: 1 nM human AP-OB, peptide up to 300 μM
From the text: Initial experiments to determine the mechanism of action of LEP(116–130) utilized two highly sensitive in vitro bioassays routinely used to assess leptin binding and receptor activation (see e.g., White, et al., 1997. Proc. Natl. Acad. Sci. U.S.A. 94: 10657–10662). An alkaline phosphatase (“AP”)-leptin (“OB”) fusion protein (“AP-OB”) was used to measure inhibition of leptin binding in the absence or presence of recombinant mouse leptin (positive control) or peptide, by COS-7 cells transfected with the long (signaling) form of the mouse OB receptor (“OB-RL”). Signal transduction assays were done in GT1–7 cells cotransfected with AP reporter and OB-RL constructs. Secreted alkaline phosphatase (“SEAP”) activity in response to stimulation with mouse leptin or peptide was measured by chemiluminescence.
Two days after transfection, COS-7 cells were incubated with 1 nm human AP-OB fusion protein and bound AP activity was determined by chemiluminescence using the Great EscApe alkaline phosphatase detection kit as described by the manufacturer (CLON-TECH).
COS-7 cells were transfected with expression vector for OB-Ra. Two days after transfection, the cells were incubated with 1 nM human AB-OB fusion protein in the absence or presence of 30 nM mouse leptin, 300 μM LEP(116–130) or LEP(146–160). Bound AP activity was determined as has been described. See., e.g., Kamohara et al., 1997 Nature 389: 374–377.

A L S R L Q G S L Q D I L Q Q (ALSRLQGSLQDILQQ) [LEP(146–160)]
Inhibition of AP-OB fusion protein binding: neither LEP(116–130) nor LEP(146–160), at 300 μM, were able to inhibit AP-OB binding | Inhibition of AP-OB fusion protein binding (listed as LEP(145–160)): unable to inhibit AP-OB binding
